T1: FcγRIIa H (human, UniProt P12318 34-217)
T1 construct: extracellular domain; Soluble His-tagged extracellular domain expressed in FreeStyle293 cells; also called FcγRIIa type H; FcgRIIa H; not shown: His tag attached to the C terminus
T1 sequence (looked up): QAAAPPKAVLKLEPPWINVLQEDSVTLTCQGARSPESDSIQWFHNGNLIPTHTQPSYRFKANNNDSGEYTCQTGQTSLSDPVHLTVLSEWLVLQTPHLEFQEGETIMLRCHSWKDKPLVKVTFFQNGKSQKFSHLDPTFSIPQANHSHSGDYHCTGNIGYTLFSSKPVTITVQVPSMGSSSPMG

T2: FcγRIIb (human, UniProt P31994 43-217)
T2 construct: extracellular domain; Soluble His-tagged extracellular domain expressed in FreeStyle293 cells; also called FcgRIIb; 2b; not shown: His tag attached to the C terminus
T2 sequence (looked up): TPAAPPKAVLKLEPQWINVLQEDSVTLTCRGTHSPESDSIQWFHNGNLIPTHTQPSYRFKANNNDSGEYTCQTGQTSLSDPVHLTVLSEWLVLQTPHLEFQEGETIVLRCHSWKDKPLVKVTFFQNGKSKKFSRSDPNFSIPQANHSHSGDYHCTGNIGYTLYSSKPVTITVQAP

B1: GpH7-A5/GpH7-B3 variant A327_03V/GpL16-k0 (antibody, human IgG1, kappa)
heavy 1: not shown
heavy 2: not shown
light: DIVMTQSPLSLPVTPGEPASISCQASESLVHSNRNTYLHWYLQKPGQSPQLLIYKVSNRFSGVPDRFSGSGSGTDFTLKISRVEAEDVGVYYCSQNTHVPPTFGQGTKVEIERTVAAPSVFIFPPSDEQLKSGTASVVCLLNNFYPREAKVQWKVDNALQSGNSQESVTEQDSKDSTYSLSSTLTLSKADYEKHKVYACEVTHQGLSSPVTKSFNRGEC
notes: Heterodimerized anti-glypican-3 IgG1; mutation in the GpH7-B3 H chain only; also called He Ab
B2: GpH7-A5/GpH7-B3 variant L328_09D/GpL16-k0 (antibody, human IgG1, kappa)
heavy 1: not shown
heavy 2: not shown
light: B1 light
notes: as for B1
B3: GpH7-A5/GpH7-B3 variant L328_15Y/GpL16-k0 (antibody, human IgG1, kappa)
heavy 1: not shown
heavy 2: not shown
light: B1 light
notes: as for B1
B4: GpH7-A5/GpH7-B3 variant A327_07I/GpL16-k0 (antibody, human IgG1, kappa)
heavy 1: not shown
heavy 2: not shown
light: B1 light
notes: as for B1
B5: GpH7-A5/GpH7-B3 variant L328_03V/GpL16-k0 (antibody, human IgG1, kappa)
heavy 1: not shown
heavy 2: not shown
light: B1 light
notes: as for B1
B6: GpH7-A5/GpH7-B3 variant L328_04F/GpL16-k0 (antibody, human IgG1, kappa)
heavy 1: not shown
heavy 2: not shown
light: B1 light
notes: as for B1
B7: GpH7-A5/GpH7-B3 variant L328_20W/GpL16-k0 (antibody, human IgG1, kappa)
heavy 1: not shown
heavy 2: not shown
light: B1 light
notes: as for B1
B8: GpH7-A5/GpH7-B3 variant L328_06M/GpL16-k0 (antibody, human IgG1, kappa)
heavy 1: not shown
heavy 2: not shown
light: B1 light
notes: as for B1
B9: GpH7-A5/GpH7-B3 variant L328_10E/GpL16-k0 (antibody, human IgG1, kappa)
heavy 1: not shown
heavy 2: not shown
light: B1 light
notes: as for B1
B10: GpH7-A5/GpH7-B3 variant A327_10E/GpL16-k0 (antibody, human IgG1, kappa)
heavy 1: not shown
heavy 2: not shown
light: B1 light
notes: as for B1
B11: GpH7-A5/GpH7-B3 variant A327_14T/GpL16-k0 (antibody, human IgG1, kappa)
heavy 1: not shown
heavy 2: not shown
light: B1 light
notes: as for B1
B12: GpH7-A5/GpH7-B3 variant A330_05P/GpL16-k0 (antibody, human IgG1, kappa)
heavy 1: not shown
heavy 2: not shown
light: B1 light
notes: as for B1
B13: GpH7-A5/GpH7-B3 variant A327_09D/GpL16-k0 (antibody, human IgG1, kappa)
heavy 1: not shown
heavy 2: not shown
light: B1 light
notes: as for B1
B14: GpH7-A5/GpH7-B3 variant L328_07I/GpL16-k0 (antibody, human IgG1, kappa)
heavy 1: not shown
heavy 2: not shown
light: B1 light
notes: as for B1
B15: GpH7-A5/GpH7-B3 variant A327_18N/GpL16-k0 (antibody, human IgG1, kappa)
heavy 1: not shown
heavy 2: not shown
light: B1 light
notes: as for B1
B16: GpH7-A5/GpH7-B3 variant I332_10E/GpL16-k0 (antibody, human IgG1, kappa)
heavy 1: not shown
heavy 2: not shown
light: B1 light
notes: as for B1
B17: GpH7-A5/GpH7-B3 variant L328_05P/GpL16-k0 (antibody, human IgG1, kappa)
heavy 1: not shown
heavy 2: not shown
light: B1 light
notes: as for B1
B18: GpH7-A5/GpH7-B3 variant A327_08L/GpL16-k0 (antibody, human IgG1, kappa)
heavy 1: not shown
heavy 2: not shown
light: B1 light
notes: as for B1
B19: GpH7-A5/GpH7-B3 variant S324_01G/GpL16-k0 (heterodimerized antibody, He Ab) (antibody, human IgG1, kappa)
heavy 1: not shown
heavy 2: not shown
light: B1 light
notes: Mutation in one H chain only; also called S324_01G He Ab
B20: GpH7-A5/GpH7-B3 variant S239_10E/GpL16-k0 (heterodimerized antibody, He Ab) (antibody, human IgG1, kappa)
heavy 1: not shown
heavy 2: not shown
light: B1 light
notes: Mutation in one H chain only; also called S239_10E He Ab

Target: T1, FcγRIIa H
Experiment: SPR (Biacore); He/Con_2aH divided by He/Con_2b (FcγRIIb) of the same antibody
Procedure: The heterodimerized antibodies He Abs in which one of the H chains was introduced with an alteration were assayed for their binding activities to each activating FcγR and inhibitory FcγR according to the method described in Example 4. […] The activating FcγRs in FIGS. 26, 27, 28, and 29 are FcγRIa, FcγRIIa (R), FcγRIIa (H), and FcγRIIIa, respectively.
(§1) Analysis of interaction between objective antibody and the FcγR was carried out using Biacore T100 (GE Healthcare). HBS-EP+ (GE Healthcare) was used as the running buffer, and the measurement temperature was set to 25° C. Chips produced by immobilizing the antigen peptide by the amine coupling method to a Series S Sencor Chip CM5 (GE Healthcare), or alternatively, chips produced by allowing preliminarily biotinylated antigen peptides to interact with and immobilize onto a Series S Sensor Chip SA (certified) (GE Healthcare) were used. Antibodies of interest were captured onto an antigen peptide-immobilized chip, and allowed to interact to each FcγR diluted with running buffer. To regenerate and repeatedly use the chip, the antibodies captured on the chip were washed off by reacting 10 mM glycine-HCl, pH 1.5.

He_2aH/2b | Binder
0.54 ratio | B1
0.29 ratio | B2
0.47 ratio | B3
0.46 ratio | B4
0.78 ratio | B5
0.33 ratio | B6
0.48 ratio | B7
0.73 ratio | B8
0.32 ratio | B9
0.65 ratio | B10
0.51 ratio | B11
0.63 ratio | B12
0.61 ratio | B13
0.59 ratio | B14
0.59 ratio | B15
0.76 ratio | B16
0.7 ratio | B17
0.74 ratio | B18

Target: T3, FcγRIIIa extracellular domain with C-terminal His tag (human, UniProt P08637 17-208)
T3 construct: extracellular domain; also called 3a; FcgRIIIa
T3 sequence (P08637 17-208): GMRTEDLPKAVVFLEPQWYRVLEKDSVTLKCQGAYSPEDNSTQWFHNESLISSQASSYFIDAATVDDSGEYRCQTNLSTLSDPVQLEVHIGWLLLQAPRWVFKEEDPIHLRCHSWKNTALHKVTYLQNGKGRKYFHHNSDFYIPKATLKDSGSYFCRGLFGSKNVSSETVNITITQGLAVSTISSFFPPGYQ
Experiment: SPR (Biacore), antibody captured on antigen-peptide chip, FcγR analyte, relative binding

He/Con_3a | Binder
105 % of GpH7-A5/GpH7-B3/GpL16-k0 (=100) | B19
181 % of GpH7-A5/GpH7-B3/GpL16-k0 (=100) | B20

Target: T1, FcγRIIa H
Experiment: SPR (Biacore), captured antibody, FcγR analyte; relative to GpH7-A5/GpH7-B3/GpL16-k0 = 100
Procedure: as §1
(§2) The FcγR-binding activity of each antibody was assessed primarily using as an indicator the FcγR-binding activity and dissociation constant for FcγR.

He/Con_2aH | Binder
51 relative (control = 100) | B1
58.5 relative (control = 100) | B2
90 relative (control = 100) | B3
58.4 relative (control = 100) | B4
97.8 relative (control = 100) | B5
71.7 relative (control = 100) | B6
113 relative (control = 100) | B7
104 relative (control = 100) | B8
55.5 relative (control = 100) | B9
91.3 relative (control = 100) | B10
45.6 relative (control = 100) | B11
85.7 relative (control = 100) | B12
105 relative (control = 100) | B13
93.9 relative (control = 100) | B14
66.8 relative (control = 100) | B15
108 relative (control = 100) | B16
45.4 relative (control = 100) | B17
46.9 relative (control = 100) | B18

Target: T2, FcγRIIb
Experiment: as above
Procedure: as §1, §2

He/Con_2b | Binder
94.7 relative (control = 100) | B1
199 relative (control = 100) | B2
193 relative (control = 100) | B3
127 relative (control = 100) | B4
126 relative (control = 100) | B5
219 relative (control = 100) | B6
235 relative (control = 100) | B7
142 relative (control = 100) | B8
172 relative (control = 100) | B9
140 relative (control = 100) | B10
89.4 relative (control = 100) | B11
137 relative (control = 100) | B12
172 relative (control = 100) | B13
160 relative (control = 100) | B14
113 relative (control = 100) | B15
142 relative (control = 100) | B16
65.1 relative (control = 100) | B17
63.1 relative (control = 100) | B18
